Data as given in US8022177B2, “Peptides and calcium regulation in mammalian cells” (The Board of Trustees of the University of Illinois, priority 2005, dated 2011).

Legend:
Cav3.1 [1] = target: T1, Cav3.1 (Homo sapiens, UniProt O43497); assay: Whole-cell patch clamp of Cav3.1 LVA current in HEK/Cav3.1 cells transfected with γ6/γ4 chimeric and truncated constructs (Example 2); format: cell-based; conditions: Table 1 (Example 2)
T1 construct: expressed in transfected cells; host or cells: HEK-293, stably transfected
T1 sequence (O43497 whole entry, the tested form may be a part): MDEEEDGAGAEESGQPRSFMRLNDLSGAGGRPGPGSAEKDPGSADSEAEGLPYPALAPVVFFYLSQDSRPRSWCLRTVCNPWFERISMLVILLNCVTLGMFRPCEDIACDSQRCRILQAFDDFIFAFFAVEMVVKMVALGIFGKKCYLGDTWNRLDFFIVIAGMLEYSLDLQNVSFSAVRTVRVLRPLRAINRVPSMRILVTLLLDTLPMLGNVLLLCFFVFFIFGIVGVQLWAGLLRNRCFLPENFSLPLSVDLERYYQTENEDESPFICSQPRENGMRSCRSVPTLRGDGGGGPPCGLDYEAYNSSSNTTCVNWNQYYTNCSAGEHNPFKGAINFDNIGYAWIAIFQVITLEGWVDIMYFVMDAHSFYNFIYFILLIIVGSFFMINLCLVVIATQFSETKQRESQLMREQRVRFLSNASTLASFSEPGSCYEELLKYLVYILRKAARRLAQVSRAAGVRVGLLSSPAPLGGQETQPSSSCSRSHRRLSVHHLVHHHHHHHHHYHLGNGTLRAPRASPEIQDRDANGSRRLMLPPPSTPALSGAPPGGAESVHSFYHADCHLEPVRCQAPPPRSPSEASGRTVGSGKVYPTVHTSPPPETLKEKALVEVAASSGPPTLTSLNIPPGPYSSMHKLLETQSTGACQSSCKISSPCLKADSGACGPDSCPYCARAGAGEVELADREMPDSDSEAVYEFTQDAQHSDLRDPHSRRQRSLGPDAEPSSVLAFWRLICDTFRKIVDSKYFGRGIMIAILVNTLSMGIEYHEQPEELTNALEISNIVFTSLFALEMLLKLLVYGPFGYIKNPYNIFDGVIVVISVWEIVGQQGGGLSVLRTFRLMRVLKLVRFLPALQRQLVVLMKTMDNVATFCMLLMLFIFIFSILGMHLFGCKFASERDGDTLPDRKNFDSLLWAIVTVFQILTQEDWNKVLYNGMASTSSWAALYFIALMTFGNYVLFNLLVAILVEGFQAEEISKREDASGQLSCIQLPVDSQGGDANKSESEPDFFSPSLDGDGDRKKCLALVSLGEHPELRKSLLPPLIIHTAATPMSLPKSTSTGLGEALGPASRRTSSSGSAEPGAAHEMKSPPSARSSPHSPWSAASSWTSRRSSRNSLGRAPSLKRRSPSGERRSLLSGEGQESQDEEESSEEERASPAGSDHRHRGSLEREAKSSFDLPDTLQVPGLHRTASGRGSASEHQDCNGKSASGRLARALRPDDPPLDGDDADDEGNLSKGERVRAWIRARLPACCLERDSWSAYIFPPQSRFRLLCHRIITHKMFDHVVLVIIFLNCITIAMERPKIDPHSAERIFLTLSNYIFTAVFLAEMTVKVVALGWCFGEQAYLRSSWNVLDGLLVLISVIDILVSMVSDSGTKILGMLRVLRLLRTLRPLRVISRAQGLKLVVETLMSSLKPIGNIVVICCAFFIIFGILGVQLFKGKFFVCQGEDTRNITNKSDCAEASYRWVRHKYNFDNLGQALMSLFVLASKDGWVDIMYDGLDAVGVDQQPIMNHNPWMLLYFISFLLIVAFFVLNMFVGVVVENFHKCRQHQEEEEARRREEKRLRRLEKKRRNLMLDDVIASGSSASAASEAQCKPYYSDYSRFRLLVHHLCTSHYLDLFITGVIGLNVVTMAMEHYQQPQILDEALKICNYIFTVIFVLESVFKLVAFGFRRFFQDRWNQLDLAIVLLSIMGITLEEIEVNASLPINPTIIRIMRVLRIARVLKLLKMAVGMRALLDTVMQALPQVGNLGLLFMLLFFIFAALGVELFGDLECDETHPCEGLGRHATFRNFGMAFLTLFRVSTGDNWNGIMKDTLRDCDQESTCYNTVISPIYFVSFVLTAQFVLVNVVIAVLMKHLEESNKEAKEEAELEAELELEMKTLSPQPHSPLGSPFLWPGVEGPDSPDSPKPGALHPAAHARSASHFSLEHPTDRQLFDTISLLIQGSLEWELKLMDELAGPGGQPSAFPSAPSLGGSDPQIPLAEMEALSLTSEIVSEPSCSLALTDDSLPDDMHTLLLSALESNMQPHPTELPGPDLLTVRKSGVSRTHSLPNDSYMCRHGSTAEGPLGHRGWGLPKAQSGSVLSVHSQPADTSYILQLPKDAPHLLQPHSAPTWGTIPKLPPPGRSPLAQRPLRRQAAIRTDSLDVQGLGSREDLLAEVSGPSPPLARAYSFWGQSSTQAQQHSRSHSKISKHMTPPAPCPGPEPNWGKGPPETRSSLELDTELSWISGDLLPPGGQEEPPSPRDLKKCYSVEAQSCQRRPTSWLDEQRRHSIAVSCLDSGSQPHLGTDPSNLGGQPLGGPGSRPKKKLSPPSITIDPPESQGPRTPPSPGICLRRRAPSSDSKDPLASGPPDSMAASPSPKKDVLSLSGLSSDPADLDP
Procedure: Transfection—HEK-293 cell lines stably transfected with Cav3.1 were transiently transfected with vectors containing γ subunit cDNAs using Lipofectamine 2000 reagent (Invitrogen) as per the manufacturer's recommendations. HEK-293 cells were grown to 70-80% confluence before transfection.
Electrophysiology—Whole-cell calcium currents were recorded using an Axopatch-1D patch clamp system and Clampex 8.0 software. Pipettes were fabricated from borosilicate glass and had typical resistances of 2-4 MΩ. The pipette solution contained (in mM): 130 NaCl, 10 EGTA, 2 MgCl2, 1 CaCl2, 10 HEPES, 3 Tris-ATP, and 0.3 Tris-GTP, adjusted to pH 7.4 with NaOH and 280 mOsm with sucrose. The bath solution contained (in mM): 137 NaCl, 1 KCl, 1 MgCl2, 0.33 NaH2PO4, 2 CaCl2, 10 HEPES, and 30 μM TTX, adjusted to pH 7.4 with NaOH and 280 mOsm with sucrose.
Recordings from HEK-293 cells were made 48-96 hours post-transfection, at which time expression, as measured by GFP fluorescence, peaked. All HEK-293 data is from current records in which pipette and whole-cell capacitance were about 100% compensated and series resistance was compensated to >80%. Series resistance values were typically <10 MΩ (megaohms), and no records were used in which the voltage error (as defined by Ver=Imax×Ra) was greater than 5 mV. The holding potential of all protocols used for HEK-293 cells was −100 mV except for steady-state inactivation protocols where the holding potential was −120 mV. Current-voltage relationships for all HEK-293 cells were measured using 50 ms test depolarizations. Peak current amplitudes for activation curves were determined by fitting tail currents, elicited by stepping membrane voltage from varying test potentials to −60 mV, with the Boltzman equation. Test potential steps for activation protocols were of varied durations, corresponding to the time to peak of the elicited current. Inactivation curves were determined by fitting peak amplitudes of currents, observed in a test pulse to −20 mV, following 500 ms steps to varying potentials, with the Boltzman equation. Time to peak was determined using the current-voltage protocol described above. Inactivation time constants were determined by fitting the decay phase of currents to an exponential equation and deactivation time constants were determined by fitting the decay phase of tail currents to an exponential equation. […] When a double exponential equation was used to fit Cav3.1 tail currents, the magnitude of the fast component was about 10 fold that of the slow component. Currents were recorded at 40 kHz and on-line filtered at 5. In some cases currents were off-line filtered at 1 kHz to further reduce noise. Current-voltage relationships and tail currents were recorded from HEK cells using an on-line P/−4 subtraction procedure. The average membrane capacitance of untransfected HEK-293 cells in pilot experiments was 12.5+/−0.4 pF (n=8).
Statistical Analysis—All data are reported as mean±SEM and tested for significance by one-way ANOVA. A value of P<0.05 was considered significant and when significant p-values were encountered groups were compared using the Tukey post-hoc test.

Cav3.1 [2] = target: T1, Cav3.1; assay: Co-immunoprecipitation of Flag-tagged γ subunits with Cav3.1; format: binding
Procedure: Immunoprecipitation and Immunodetection. HEK-293 cells stably transfected with Cav3.1 were grown in T25 tissue culture flasks and transiently transfected when 70-90% confluent. Five μg of each plasmid expression vector was transfected per T25 flask using 15 μL Lipofectamine 2000 reagent (Invitrogen, Carlsbad, Calif.) as per the manufacturer's recommendations. Cells were processed for immunoprecipitation assay and immunoblot analysis 24 hr post-transfection. Cells were washed and scraped from flasks with ice cold PBS (without Ca^2+ or Mg^+) and centrifuged for 5 min at 500×g at 4° C. Cell pellets were resuspended in 1.0 mL lysis buffer (50 mM Tris HCl, 150 mM NaCl, 1 mM EDTA, 2% Triton X-100, and 1:100 Protease Inhibitor Cocktail Set III (EMD Biosciences, San Diego, Calif.)) and incubated with constant mixing for 1 hr at 4° C. Samples were cleared by centrifugation at 10,000×g for 2 min at 4° C. Equal amounts of cell lysate were added to a 75 μL bed volume of anti-FLAG M2 affinity gel (Sigma, St. Louis, Mo.) that was washed three times with lysis buffer. Samples were immunoprecipitated with constant mixing overnight at 4° C. Beads were washed three times with lysis buffer and incubated in sample buffer containing 1% SDS, 50 mM DTT, and 10% glycerol for 30 minutes at 25° C. […]

Molecule | Activation V 0.5 (Cav3.1 [1]) | Activation k (Cav3.1 [1]) | Deactivation tau @ −100 mV, Fast (Cav3.1 [1]) | Inactivation V 0.5 (Cav3.1 [1]) | Inactivation k (Cav3.1 [1]) | Inactivation tau @−20 mV (Cav3.1 [1]) | Time to peak @ −20 mV (Cav3.1 [1]) | V peak (Cav3.1 [1]) | Co-immunoprecipitation with Cav3.1 (Cav3.1 [2]; FIG. 36A) | Interaction with Cav3.1 relative to γ6 (Cav3.1 [2]; Cav3.1 in anti-Flag immunoprecipitates, FIG. 36B)
γ6L: rat calcium channel γ6 subunit, long isoform (AF361343), SEQ ID NO:48 (protein, listed as Rattus norvegicus) MMWSNFFMQEEDRRRTAVGRRRAQEQQNLGLTPEREGKIKLGLLVAIVGATLAVLAVGTEFWVELNTYKTNGSAVCEAAHLGLWKVCIKRLWQADVPAGRETCGPAELPGEANCTYFKFFTTGENAHIFQRTTKKEVNLAAAVIAVLGLTAMALGCLCVIMVLSKGAEFLLRLGAVCFGLSGLLLFVSLEVFRHSVRALLQGVNPETPPAPRLAYEYSWSLGCGVGAGLILLLGGVCFLLLTLPSWPWRSLCPKRGGPTA | −36.3 ± 6.2 (n = 4) mV | 12.7 ± 1.5 (n = 4) | 1.54 ± 0.48 (n = 4) ms | −78.5 ± 2.6 (n = 6) mV | 5.4 ± 0.3 (n = 6) | 18.6 ± 1.1 (n = 6) ms | 6.0 ± 0.8 (n = 5) ms | −31.1 ± 3.1 (n = 9) mV | robust coimmunoprecipittion | –
γ4: rat calcium channel γ4 subunit (AF361341), SEQ ID NO:47 (protein, listed as Rattus norvegicus) MVRCDRGLQMLLTTAGAFAAFSLMAIAIGTDYWLYSSAHICNGTNLTMDDGPPPRRARGDLTHSGLWRVCCIEGIYKGHCFRINHFPEDNDYDHDSSEYLLRIVRASSVFPILSTILLLLGGLCIGAGRIYSRKNNIVLSAGILFVAAGLSNIIGIIVYISSNTGDPSDKRDEDKKNHYNYGWSFYFGALSFIVAETVGVLAVNIYIEKNKELRFKTKREFLKASSSSPYSRMPSYRYRRRRSRSSSRSTEASPSRDASPVGLKITGAIPMGELSMYTLSREPLKVTTAASYSPDQDAGFLQMHDFFQQDLKEGFHVSMLNRRTTPV | −37.3 ± 0.9 (n = 8) mV | 11.8 ± 0.5 (n = 8) | 1.84 ± 0.28 (n = 8) ms | −79.2 ± 1.5 (n = 7) mV | 6.1 ± 0.2 (n = 7) | 15.8 ± 0.7 (n = 7) ms | 5.2 ± 0.5 (n = 9) ms | −30.6 ± 1.5 (n = 9) mV | – | approximately 10 % of γ6
